Data as given in patent publication US20090215683A1 (ONCOTHERAPY SCIENCE, published 2009).
Values belong to the binder of their own block, whether it stands above or below them.

Tests used:
[1] = molecular target: T1, kinetocore associated 2 (KNTC2), endogenous protein of LC319 lung-cancer cells (human, UniProt O14777 1-642); test: anti-Flag immunoprecipitation (FIG. 2C); also immunoprecipitation with anti-KNTC2 polyclonal antibody (FIG. 5A)
T1 construct: Endogenous protein in lysates of the human lung-cancer cell line LC319; Seen as a 75-kDa band and identified by MALDI-TOF mass spectrometry; also called endogenous KNTC2
T1 sequence: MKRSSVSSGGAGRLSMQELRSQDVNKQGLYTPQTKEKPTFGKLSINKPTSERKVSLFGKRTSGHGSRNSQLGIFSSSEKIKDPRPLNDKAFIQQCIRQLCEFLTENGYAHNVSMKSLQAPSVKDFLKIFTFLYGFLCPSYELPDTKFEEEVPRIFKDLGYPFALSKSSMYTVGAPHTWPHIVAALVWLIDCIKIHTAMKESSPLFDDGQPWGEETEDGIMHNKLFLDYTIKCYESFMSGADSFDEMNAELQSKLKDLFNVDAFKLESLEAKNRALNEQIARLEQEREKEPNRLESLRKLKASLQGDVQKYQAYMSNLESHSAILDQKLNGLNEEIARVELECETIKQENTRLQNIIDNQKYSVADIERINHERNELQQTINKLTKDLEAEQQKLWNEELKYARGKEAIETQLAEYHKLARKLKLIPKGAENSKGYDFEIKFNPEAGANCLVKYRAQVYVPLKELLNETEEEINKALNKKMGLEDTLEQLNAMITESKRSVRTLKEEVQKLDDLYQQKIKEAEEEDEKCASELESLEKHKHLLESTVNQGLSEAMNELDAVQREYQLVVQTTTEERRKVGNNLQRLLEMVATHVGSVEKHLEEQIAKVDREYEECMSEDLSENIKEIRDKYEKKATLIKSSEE
Description: (§1) Cell extracts from lung-cancer cell line LC319, transfected with plasmids expressing eleven deletion-constructs of CDCA1 were pre-cleared by incubation at 4° C. for 1 hour with 100 μl of protein G-agarose beads in final volumes of 2 ml of immunoprecipitation buffer (0.5% NP-40, 50 mM Tris-HCl, 150 mM NaCl) in the presence of proteinase inhibitor. After centrifugation at 1,000 rpm for 5 min at 4° C., the supernatants were incubated at 4° C. with anti-FLAG M2 agarose for 2 hours. After the beads were collected from each sample by centrifugation at 5,000 rpm for 2 min and washed six times with 1 ml of immunoprecipitation buffer, the washed beads were re-suspended in 50 μl of Laemmli sample buffer and boiled for 5 min before the proteins were separated on 10% SDS PAGE gels. Immunoblot was performed using KNTC2 polyclonal antibody (Abcom, Inc.) and anti-FLAG M2 monoclonal antibody respectively (Sigma-Aldrich Co.).

[2] = molecular target: T1, kinetocore associated 2 (KNTC2), …; test: anti-Flag immunoprecipitation from transfected LC319 cells, immunoblot for KNTC2 (FIG. 2C)
Description: as §1

[3] = molecular target: T1, kinetocore associated 2 (KNTC2), …; test: anti-Flag immunoprecipitation from transfected LC319 cells, immunoblot for KNTC2 (FIG. 2D)
Description: as §1

[4] = molecular target: T1, kinetocore associated 2 (KNTC2), …; test: immunoprecipitation with KNTC2 polyclonal antibody from LC319 cells transfected with pCAGGSn3Fc-CDCA1, anti-FLAG M2 immunoblot
Description: (f) Identification of CDCA1-associated Proteins: Cell extracts from lung-cancer cell line LC319 were pre-cleared by incubation at 4° C. for 1 hour with 50 μl of protein A and G-agarose beads, in final volumes of 2 ml of immunoprecipitation buffer (0.5% NP-40, 50 mM Tris-HCl, 150 mM NaCl) in the presence of proteinase inhibitor. After centrifugation at 1,000 rpm for 5 min at 4° C., the supernatants were incubated at 4° C. with anti-CDCA1 polyclonal antibody, anti-KNTC2 polyclonal antibody, or normal rabbit IgG for 2 hours. After incubation at 4° C. for 1 hour with 50 μl of protein A and G-agarose beads, the beads were collected from each sample by centrifugation at 5,000 rpm for 2 min and washed six times with 1 ml of immunoprecipitation buffer, and the washed beads were re-suspended in 50 μl of Laemmli sample buffer and boiled for 5 min before the proteins were separated on 5-10% SDS PAGE gels (BIO RAD). After electrophoresis, the gels were stained with silver. […] The nucleotide sequence of each cDNA clone was determined with an ABI Prism 3700 DNA sequencer (Applied Biosystems, Foster City, Calif.), using T3, T7, or synthetic oligonucleotide primers according to the manufacturer's instructions. […]

binding result [3]: no binding
B3: CDCA1 277-367 deletion construct with C-terminal FLAG sequence (other)
chain: EIYGDSVDCLPSCQLEVQLYQKKIQDLSDNREKLASILKESLNLEDQIESDESELKKLKTEENSFKRLMIVKKEKLATAQFKINKKHEDVK
notes: Expressed by transfection in LC319 cells; not shown: C-terminal FLAG tag of the pCAGGS vector

binding result [3]: no binding
B4: CDCA1 319-367 deletion construct with C-terminal FLAG sequence (other)
chain: NLEDQIESDESELKKLKTEENSFKRLMIVKKEKLATAQFKINKKHEDVK
notes: as for B3

binding result [2]: no binding
B5: CDCA1 1-148 deletion construct with C-terminal FLAG sequence (other)
chain: METLSFPRYNVAEIVIHIRNKILTGADGKNLTKNDLYPNPKPEVLHMIYMRALQIVYGIRLEHFYMMPVNSEVMYPHLMEGFLPFSNLVTHLDSFLPICRVNDFETADILCPKAKRTSRFLSGIINFIHFREACRETYMEFLWQYKSS
notes: as for B3

The next lines start with the binder.

B1: CDCA1 200-464 deletion construct with C-terminal FLAG sequence (other)
chain: QKTIVLQEGNSQKKSNISEKTKRLNELKLLVVSLKEIQESLKTKIVDSPEKLKNYKEKMKDTVQKLKNARQEVVEKYEIYGDSVDCLPSCQLEVQLYQKKIQDLSDNREKLASILKESLNLEDQIESDESELKKLKTEENSFKRLMIVKKEKLATAQFKINKKHEDVKQYKRTVIEDCNKVQEKRGAVYERVTTINQEIQKIKLGIQQLKDAAEREKLKSQEIFLNLKTALEKYHDGIEKAAEDSYAKIDEKTAELKRKMFKMST
notes: Expressed by transfection in LC319 cells; also called dominant-negative fragment of CDCA1; not shown: C-terminal FLAG tag of the pCAGGS vector
binding result [1]: binds

B2: CDCA1 149-306 deletion construct with C-terminal FLAG sequence (other)
chain: ADKMQQLNAAHQEALMKLERLDSVPVEEQEEFKQLSDGIQELQQSLNQDFHQKTIVLQEGNSQKKSNISEKTKRLNELKLLVVSLKEIQESLKTKIVDSPEKLKNYKEKMKDTVQKLKNARQEVVEKYEIYGDSVDCLPSCQLEVQLYQKKIQDLSDN
notes: Expressed by transfection in LC319 cells; also called control; not shown: C-terminal FLAG tag of the pCAGGS vector
binding result [2]: no binding

B6: CDCA1 1-464 (full length), exogenous, expressed from pCAGGSn3Fc-CDCA1 in LC319 cells (other, not shown: small tags and cut ends)
chain: METLSFPRYNVAEIVIHIRNKILTGADGKNLTKNDLYPNPKPEVLHMIYMRALQIVYGIRLEHFYMMPVNSEVMYPHLMEGFLPFSNLVTHLDSFLPICRVNDFETADILCPKAKRTSRFLSGIINFIHFREACRETYMEFLWQYKSSADKMQQLNAAHQEALMKLERLDSVPVEEQEEFKQLSDGIQELQQSLNQDFHQKTIVLQEGNSQKKSNISEKTKRLNELKLLVVSLKEIQESLKTKIVDSPEKLKNYKEKMKDTVQKLKNARQEVVEKYEIYGDSVDCLPSCQLEVQLYQKKIQDLSDNREKLASILKESLNLEDQIESDESELKKLKTEENSFKRLMIVKKEKLATAQFKINKKHEDVKQYKRTVIEDCNKVQEKRGAVYERVTTINQEIQKIKLGIQQLKDAAEREKLKSQEIFLNLKTALEKYHDGIEKAAEDSYAKIDEKTAELKRKMFKMST
notes: It is treated as the same molecule here; also called exogenous CDCA1
binding result [4]: binds
